Experiments:
[1] = biological target: MHCII (pMHCII) on mouse antigen presenting cells; experiment: cell-based or functional assay
[2] = biological target: mouse cytotoxic T lymphocyte associated antigen-4 (CTLA-4) on activated T cells (mouse, UniProt P09793 36-223); experiment: cell-based or functional assay

B1: BsB, bispecific fusion protein CD80wa-LAG-3-Fc (mouse CD80w88a(aa1-235)-G9-Lag-3(aa25-260)-IgG2a(aa241-474)) (Fc fusion)
chain: VDEQLSKSVKDKVLLPCRYNSPHEDESEDRIYWQKHDKVVLSVIAGKLKVAPEYKNRTLYDNTTYSLIILGLVLSDRGTYSCVVQKKERGTYEVKHLALVKLSIKADFSTPNITESGNPSADTKRITCFASGGFPKPRFSWLENGRELPGINTTISQDPESELYTISSQLDFNTTRNHTIKCLIKYGDAHVSEDFTWGGGGGGGGGGPGKELPVVWAQEGAPVHLPCSLKSPNLDPNFLRRGGVIWQHQPDSGQPTPIPALDLHQGMPSPRQPAPGRYTVLSVAPGGLRSGRQPLHPHVQLEERGLQRGDFSLWLRPALRTDAGEYHATVRLPNRALSCSLRLRVGQASMIASPSGVLKLSDWVLLNCSFSRPDRPVSVHWFQGQNRVPVYNSPRHFLAETFLLLPQVSPLDSGTWGCVLTYRDGFNVSITYNLKVLGLEPVAPRGPTIKPCPPCKCPAPNLLGGPSVFIFPPKIKDVLMISLSPMVTCVVVDVSEDDPDVQISWFVNNVEVLTAQTQTHREDYNSTLRVVSALPIQHQDWMSGKEFKCKVNNKALPAPIERTISKPKGSVRAPQVYVLPPPEEEMTKKQVTLTCMVTDFMPEDIYVEWTNNGKTELNYKNTEPVLDSDGSYFMYSKLRVEKKNWVERNSYSCSVVHEGLHNHHTTKSFSRTPGK
EC50 of BsB for inducing Tregs in vitro [1]: ~100 nM | potency of BsB at inducing the production of Tregs (EC50) [1]: > 100 nM | EC50 of BsB for inducing Tregs in vitro [2]: ~100 nM | potency of BsB at inducing the production of Tregs (EC50) [2]: > 100 nM
